As a reminder, the Kd is the constant that tells how readily two partners part at equilibrium. A higher Kd goes with a looser complex. A word on the EC50: it is the concentration needed to bring the measured effect to its halfway point. What is called IC50 is the point on the concentration scale where inhibition reaches its midpoint. Higher therefore signals lower potency.

Assay [1] addresses T1, SARS-CoV-2 S蛋白的RBD蛋白 (SARS-CoV-2, UniProt P0DTC2 319-541).
T1 construct: domain: RBD
The assay is described as follows: SPR, Biacore T200, RBD immobilised on CM5 chip, antibody in solution, 1:1 model. A general note: Surface plasmon resonance follows binding to a sensor surface in real time, without labels.

Assay [2] concerns the target T1, SARS-CoV-2 S蛋白的RBD蛋白. Kind of assay: ELISA, RBD coated at 2 μg/mL, 1F as human IgG1. (An ELISA detects its analyte on a solid surface through an enzyme-linked reagent.)
Another assay deals with SARS-CoV-2 S蛋白 (野生型) (SARS-CoV-2, UniProt P0DTC2 14-1273). The assay is described as follows: cell-based or functional assay.
For a further assay, the target named is 生物素化RBD (SARS-CoV-2, UniProt P0DTC2 319-541).

B1: 抗体1F (antibody, V domains shown)
VH: EVQLVESGPGLVKPSETLSLTCTVSGGSISSSSYYWGWIRQPPGKGLEWIGSIYYRGSTYYNPSLKSRVTISVDTSKNQFSLKLSSVTAADTAVYYCARHVRSAYYYGSGSYRDEGNWFDPWGQGTLVTVSS
VL: QSVLTQPPSVSGAPGQRVTISCTGTRSNIGAGHDVHWYQQLPGTAPKLLIYGNNNRPSGVPDRFSGAKSGTSASLAITGLQAEDEADYYCQSYDRTLTSYVFGTGTKVTVL
For B1, the dissociation constant Kd with SARS-CoV-2 S蛋白的RBD蛋白 [1] turned out to be 0.077 nM. The EC50 with SARS-CoV-2 S蛋白的RBD蛋白 [2] turned out to be 0.0016 µg/mL. Moreover, in the assay with SARS-CoV-2 S蛋白 (野生型), the “中和SARS-CoV-2活病毒 (Vero-E6细胞, RT-PCR) IC50” value turned out to be 0.018 µg/mL and the “中和野生型SARS-CoV-2假病毒 (293T-ACE2细胞, 荧光素酶) IC50” value was 0.0464 µg/mL. This molecule came in with a half-inhibitory concentration (IC50) with 生物素化RBD of 0.213 µg/mL.

Values taken from patent CN112390879A (UNIV SHANGHAI TECHNOLOGY, dated 2021).
